In the DeepSol protein solubility set:

Assay: soluble on expression in E. coli; label from the status in PepcDB or PDB records

Sequence	soluble on expression in E. coli
MGSDKIHHHHHHMSLKFDFSNLFEPNISGGLTDEDVKSVEEKVTSAVRNFVENTPDFAKLDRSWIDSVKSLEDWIINFDTVVVLGIGGSGLGNLALHYSLRPLNWNEMTREERNGYARVFVVDNVDPDLMSSVLDRIDPKTTLFNVISKSGSTAEVMATYSIARGILEAYGLDPREHMLITTDPEKGFLRKLVKEEGFRSLEVPPGVGGRFSVLTPVGLLSAMAEGIDIDELHEGAKDAFEKSMKENILENPAAMIALTHYLYLNKGKSISVMMAYSNRMIYLVDWYRQLWAESLGKRYNLKGEEVFTGQTPVKALGATDQHSQIQLYNEGPNDKVITFLRVENFDREIVIPETGRAELSYLARKKLSELLLAEQTGTEEALRENNRPNMRVTFDGLTPYNVGQFFAYYEAATAFMGYLLEINPFDQPGVELGKKITFALMGREGYTYEIKERSKKVIIE	soluble
MGSDKIHHHHHHMINQAKIEHSGLVDDFIGLYQALNKDNLHLLAEVYDDNICFIDPMHQVNGLNALTQYFAKLYQNIGYIHFEIKEVLQDDTQASLFWQMQYRHPKLNKGEVVRVDGMSQLKFHQRIYFHRDYFDLGQMLYEHLPCMGGLIRLLKDRAAK	not soluble
MGSDKIHHHHHHMALEPQIKSAPTPVILIVEPYGGSIRQQNPNLPMVFWDDAALTRGDGIFETLLIRDGHACNVRRHGERFKASAALLGLPEPILEDWEKATQMGIESWYSHPNAGEASCTWTLSRGRSSTGLASGWLTITPVSSDKLAQREHGVSVMTSSRGYSIDTGLPGIGKATRGELSKVERTPAPWLTVGAKTLAYAANMAALRYAKSNGFDDVIFTDGDRVLEGATSTVVSFKGDKIRTPSPGGDILPGTTQAALFAHATEKGWRCKEKDLSIDDLFGADSVWLVSSVRGPVRVTRLDGHKLRKPDNEKEIKALITKALG	not soluble
MGSSHHHHHHGGTGENLYFQGGSGATAQNANPECVGPESPQAGIAPSCQGCPNAAICASAPKGPDPDIPLIRERLAGVKHKVMVVSGKGGVGKSTMTKELAFALGARGLSVGLMDMDICGPSLPRLTGVRGEDAHQSAGGIEPVLVDENVTMMSMHYLLSDKNEAVLFRGPRKNGVIKMFLKDVIWGNLDVLLIDTPPGTSDEHITVNSLLQQTTNGVDGAVLITTPQRVAEADVRREVNFCQKAKLPILGLVENMSGFVCPGCHKESQIFPKEEGGEGRKEGAGVRLSREFDVPLWGEVPLDPQLMKACEEGISFSEYVEKSGMTSSTTLDALFTVADQLIASLGIQVE	not soluble
MKQKVVSIGDINVANDLPFVLFGGMNVLESRDLAMRICEHYVTVTQKLGIPYVFKASFDKANRSSIHSYRGPGLEEGMKIFQELKQTFGVKIITDVHEPSQAQPVADVVDVIQLPAFLARQTDLVEAMAKTGAVINVKKPQFVSPGQMGNIVDKFKEGGNEKVILCDRGANFGYDNLVVDMLGFSIMKKVSGNSPVIFDVTHALQCRDPFGAASGGRRAQVAELARAGMAVGLAGLFIEAHPDPEHAKCDGPSALPLAKLEPFLKQMKAIDDLVKGFEELDTSK	soluble
MGTEVSTSPTSLIDQTVVPGDVVLDLSNMTNQTIKLGSGLRQDNEVISVMRAGKLRYSKPNKYWVESSHKRYVPRPEDHVLGIVVDCKGENYWIDIKGPQLALLPVLAFEGANRRNYPKFEVSTLLYTRVVKTNTGMNPELSCVDESGKAAGFGPLKDGFMFETSTGLSRMLLSSPTCPVLEALGKKLSFETAFGLNGRCWVHAAAPRIVIIVANALMNSETLSGTQQRIMVEKLLEKISD	soluble
MSLEFLRDFGKTALIHQGNEISYAELLENIASFANLMDITPNERVGIVMENRPEWVYAFYGTWKKGGIVVPIDFMSTPQEIRYILEDAEPSIIFCSDETYPRVREASEDLKVEIVNVDNLVLPTPWEGIVRRDEDDVAVLPYTSGTTGNPKGVMLTFKNLMSNIRGVSEVGIAGKEDKTLAILPFHHMYPLMTTMLLPLYLGATVVFLDKLTPEDIIEKLQKYQITVLIGVPRLYQLFHRRIMEEINKNVLAKNLFKLMKKVKNQKIRKTVFKKVHDAFGGRIKYMVSGGAKLPLDIAQDLTTLGFTVIEGYGLTETSPIVSFNPPNRIKLGSVGVPIKGVEVMTTSEGEIIVRGDNVMKGYWKKPEETQKVIINGWFYTGDLGEIDEEGYIYITGRKKEIIVLGSGKNVFPEEIESKILAKAPYIKEVGVFEKDGKLLALIYPDFEKVKELGITNLEETIKWEVIDKVNRELPEWKRVVGFKIVKTELPKTRLGKLRRFLLPQIYEKAEEIKEEKTEDYSVFETEEGRIIKEFLEKISQKEVKPGDHLEIDLGLDSLAKVELLGFIETNFGVSLSEEELSKNLVVKDLIELVRSKKKSVDTKEVSWKDILTKAKPYELYHYPLIFELGRKLLKLYFKLYHRIDVRGLENLPKPPFIIAPNHQSYLDAFAIAAVLPKEIAHETYFLGDETYFRNPITSTFGKLAHVITVNVNKGLKESLQKTAYALMSGKVVVIFPEGARTRTEELMEFKKGVAILARELGVPIVPVAIEGAYEAWSVYDKFPKPKKIKIMFGKPVDPDEKSYEEITKELYEWIKSMLEFLKKESEGHHHHHH	soluble
MDLSTGVPVSIQLKTIVQQGNEQKDFFFDLEGQLVKMGDTLYIRYKEELLEDTEPTPVTIKIEPDGHVQLIRAGELRMRLRFGYQEKLDTSYRTPYGLLQISTFTHNLRVSLKDQPMSGKILVDYDLYSQTERIGEYHLELEFTA	not soluble
MGSDKIHHHHHHMSNKPFFYQDPFPLKKDDTEYYLLTSEHVSVAEFEGQEILKVAPEALTLLARQAFHDASFMLRPAHQQQVADILRDPQASENDKYVALQFLRNSDIAAKGVLPTCQDTGTAIIVGKKGQRVWTGGGDEAALARGVYNTYIEDNLRYSQNAALDMYKEVNTGTNLPAQIDLYSVDGDEYKFLCIAKGGGSANKTYLYQETKALLTPGKLKNYLVDKMRTLGTAACPPYHIAFVIGGTSAEANLKTVKLASAKYYDALPTEGNEHGQAFRDIELEKELLLEAQNLGLGAQFGGKYFAHDIRVIRLPRHGASCPVGMGVSCSADRNIKAKINRDGIWIEKLERNPGKYIPEALRQAGEGEAVRVDLNRPMSEILQQLSQYPVSTRLSLNGTIIVGRDIAHAKLKERMDRGEGLPQYIKDHPIYYAGPAKTPEGYASGSLGPTTAGRMDSYVDQLQSQGGSMIMLAKGNRSQQVTDACKKHGGFYLGSIGGPAAVLAQGSIKRLECVEYPELGMEAIWKIEVEDFPAFILVDDKGNDFFQQIQSSQCGAALSNVAALRGGNMIRYFAGERRKRLIRSTPLCCYR	not soluble
TVVCDNGYGDLAATSALTTVIKDPISLTIKDIYEHGVKNPFTKIIHKLKKFIRYRKVLRWSRMWWVLLVREIVGDNTIEKKTEKALREIWDQCTIAVYNNTLNAVESKPLLFLHGILNECRNNFATKLRQDPSLIVAKIDQIIKSQIYRFWVSEPYLKIGRSHTLYTHITPDAVPQLPKECTLKHLSSYMEEKLKSMESKKNIESGKYEFDVDSSETDSTKDDGKPDDDDDDDDNFDDDDNFDDDTVEEEDASGDLFKNEKKDENKE	soluble
MGSDKIHHHHHHMNAAQAGLYVDQLTVTWRNGHTALRDASFSVPRGSIAALVGVNGSGKSTLFKALMGFVRVGHGEIAILGQPVNRALRQNLVAYVPQSEEMDWSFPVLVEDVVMMGRYGHMGWLRRAKPRDREIVDAALARVGMSEFRHRQIGELSGGQKKRVFLARAIAQQGQVILLDEPFTGVDVQTEARIISLLRELRDEGCTMLVSTHNLGSVSEFCDYTVMVKGTVLASGPTETTFTAENLERAFSGVLRHVALTGGEAQVITDDERPFISRRAAGGPR	not soluble
VDHLHIVGDVYDRGPYPDKIMDTLMNYHSLDFQWGNHDILWMGAASGSRVCAANVIRISARYLNLDILEDSYGISLRPLALFADEIYKNDPCTYFQPKNEDNLNYSKAEITQIARMHKAISIIQFKLEGEIINRRKEFDMNHRLLLQMIDYKKGTIHLKGKDYQLLDTHFPTIDPNDPYKLTKEEKELIEKITASFKNCRRLQKHVQFLYSKGSMFLTYNGNLLYHGCIPLYEDGTFMEMKLRGENFSGRELLEQFEILTREAYVRKPGTKEKKYACDIVWYLWTGAVSSLFGKSEMTTFERYFIAEKETHKEEKNPYYKLRNEETICKQILEEFGLDGECGHIINGHTPVKEGKGESPIKANTKMLVIDGGFAKAYHKETTLAGYTLLYNSY	not soluble
VSKRAAPFLYMITQRIEERGLPMELALLPVVESSFDAFAYSHGSAAGLWQFVPGTGKMMGLEQNYWYDGRRDVAASTDAALDYLVQLNERFDGNWEHAIAAYNSGGGRVSSAIRKNKKLGKPVDFFSLDLPKETSSYVPKLLALADVVANQEKYGIDIPSIPNKPVLT	not soluble
MKIVIAPDSFKESLSALEVAEAVERGFRTVFPEAEYVKVPMADGGEGTVRSLVDATGGRIVETEVTGPLGEPVRAFFGLLGDGKTAVIEMAAASGLHLVPRDRRNPLVTTTRGTGELILAALDAGATHLIIGIGGSATNDGGAGMVQALGGRLLDEDGCDIGPGGGALADLHAIDLSGLDPRLGGVRIDVACDVDNPLTGPNGASAIFGPQKGATPDMVAVLDRNLAHYADVIRRDLGKQVGDIPGAGAAGGLGAGLLAFLPAELKRGVEIVIETVQLAERVKDADLVITGEGRIDGQTVFGKTPIGVAKTAKQFGVPVIGIAGSLGDDSAVVLDHGIDALFTIVPGVVPLEKALEQAEHYVTQTARHIASVYRLGQMKGTSSS	not soluble
AHHHHHHGSRVVKKIGLIGGMTPESTCYYYRKYIEISRKKFRKYEYPELLIYSINFRDFFMNPEGWEGRKRILINAAKALERAGAELIALTANTPHIVFDDIQKEISVPMVSIIDAVAEEILSHGLKKVLLLETKTTMSSGFYVNALKNKGLEVVVPNEEEQEELNRIIFEELAFENLKSKRWIIDLIERYAKEEGVEGVILGCTELPLAVKRGDVSIEVFDSAEIHIKKLIEVASQSI	not soluble
MSLDKHLLVKRTLGCVCAATLMGAALATHHDSLNTVKAEEKTVQVQKGLPSIDSLHYLSENSKKEFKEELSKAGQESQKVKEILAKAQQADKQAQELAKMKIPEKIPMKPLHGPLYGGYFRTWHDKTSDPTEKDKVNSMGELPKEVDLAFIFHDWTKDYSLFWKELATKHVPKLNKQGTRVIRTIPWRFLAGGDNSGIAEDTSKYPNTPEGNKALAKAIVDEYVYKYNLDGLDVDVEHDSIPKVDKKEDTAGVERSIQVFEEIGKLIGPKGVDKSRLFIMDSTYMADKNPLIERGAPYINLLLVQVYGSQGEKGGWEPVSNRPEKTMEERWQGYSKYIRPEQYMIGFSFYEENAQEGNLWYDINSRKDEDKANGINTDITGTRAERYARWQPKTGGVKGGIFSYAIDRDGVAHEGHHHHHH	soluble
MEKGWKRADLHVHTTCSFDVLPAKDLNPLSLYEKSLEIGMDFVTFTDHDTVEAYEILGWDREKLTPGAEMTLYDPEFAGHTLHINVFELDREYFSELREIAEIEHDLKSFTGYLKRHRLPFVYNHPFWFEFHRQPNPSAVPKLAKLFPVLEYNMHELKQKNELTIALAERFGKSIVATTDTHTGKMGQVYTLAKGDSFREYFRNIEKGRNYIVTGDLTRELLIEEMNTWIDLIFEKSQKNRDIKNYLTGIKSLDALVKISRSTLLNYSPRLNRTAMNLFYMISNTGLPASFYIHSEKSFAREIEKDIEINNRK	not soluble
MKRIVILGGGFGGLYTALRVSQLPWETQQKPEIVLVDQSDRFLFSPLLYELLTGELQSWEIAPPFIELLEGTGIRFYQAVVSGIDIDQQRVHLQDGPEIPYDRLVLTLGGETPLDLVPGAISYAYPFRTIADTYRLEERLRVLEESDAEKIRVAIVGAGYSGVELACKLADRLGERGRFRLVEISDQILRTSPDFNREAAKKALDAKGVFIDLETKVESIGQNTISLEYKNQVDTIPVDLVIWTVGTRVTNVVKSLPFKQNQRGQITNTPTLQVLDHPDIFALGDLADCIDAEGQQVPATAQAAFQQADYAAWNIWASLTQRPLLPFRLEHHHHHH	soluble
